The test system of data set [1] is pPROT8 derived LacZ-proELA-1 fusion protein [β-galactosidase: P00722].
For data set [2], the system named is recombinant MBP-proELA-1 fusion protein (from pPROT5).
Data set [3] deals with recombinant trypsin (TrypZean) (UniProt P00760). The data set can be described thus: cell-based or functional assay.

From patent US20180208918A1 come the findings set out here.

Where only a bound is given, the exact number is not on record here.

UniProt P00760, sequence (P00760 24-246): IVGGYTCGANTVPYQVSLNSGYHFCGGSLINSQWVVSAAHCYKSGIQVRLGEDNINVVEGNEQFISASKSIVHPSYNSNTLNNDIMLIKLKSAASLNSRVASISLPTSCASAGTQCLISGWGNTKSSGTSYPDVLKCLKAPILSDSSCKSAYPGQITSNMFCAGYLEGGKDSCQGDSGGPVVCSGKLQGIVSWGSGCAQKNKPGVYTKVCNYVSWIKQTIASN

Take trypsin: the “conversion of the fusion protein to enzymatically active human ELA-1 with trypsin” value in data set [1] is given as “it could not be converted to enzymatically active human ELA-1 with trypsin”. In addition, in data set [2], the “digestion of the fusion protein with trypsin (SDS-PAGE; elastase activity by SLAP assay)” value was “The soluble recombinant MBP-proELA-1 protein could be digested with trypsin to yield both MBP and mature human ELA-1”.

B1: soybean trypsin inhibitor (SBTI) (protein, UniProt P01070 25-205, looked up)
chain: DFVLDNEGNPLENGGTYYILSDITAFGGIRAAPTGNERCPLTVVQSRNELDKGIGTIISSPYRIRFIAEGHPLSLKFDSFAVIMLCVGIPTEWSVVEDLPEGPAVKIGENKDAMDGWFRLERVSDDEFNNYKLVFCPQQAEDDKCGDIGISIDHDDGTRRLVVSKNKPLVVQFQKLDKESL
On to B1, for which, in data set [3], the Mean trypsin activity (BENZ assay), TrypZean concentration equivalent; PRT-201 from clone 55M3 Vial #1 plus TrypZean spike (to 100 ng/mL) and SBTI (to 10 ug/mL); spike without SBTI 118.7 is less than 1.56 ng/mL; the Mean trypsin activity (BENZ assay), TrypZean concentration equivalent; PRT-201 from clone 55M3 Vial #2 plus TrypZean spike (to 100 ng/mL) and SBTI (to 10 ug/mL); spike without SBTI 122.4 is less than 1.56 ng/mL; the Mean trypsin activity (BENZ assay), TrypZean concentration equivalent; PRT-201 from clone 55M3 Vial #3 plus TrypZean spike (to 100 ng/mL) and SBTI (to 10 ug/mL); spike without SBTI 122.8 was less than 1.56 ng/mL; the Mean trypsin activity (BENZ assay), TrypZean concentration equivalent; PRT-201 from trypsin activated clone plus SBTI (to 10 ug/mL); intrinsic activity without SBTI 8.7 is less than 1.56 ng/mL. Besides, in data set [3], the Mean trypsin activity (BENZ assay), TrypZean concentration equivalent; PRT-201 from trypsin activated clone plus TrypZean spike (to 100 ng/mL) and SBTI (to 10 ug/mL); spike without SBTI 130.0 was less than 1.56 ng/mL; the Mean trypsin activity (BENZ assay), TrypZean concentration equivalent; TrypZean standard 1.56 ng/mL plus SBTI (to 10 ug/mL); without SBTI 2.7 is less than 1.56 ng/mL; the Mean trypsin activity (BENZ assay), TrypZean concentration equivalent; TrypZean standard 3.13 ng/mL plus SBTI (to 10 ug/mL); without SBTI 3.7 was less than 1.56 ng/mL; the Mean trypsin activity (BENZ assay), TrypZean concentration equivalent; TrypZean standard 6.25 ng/mL plus SBTI (to 10 ug/mL); without SBTI 6.5 is less than 1.56 ng/mL. For the same molecule, in data set [3], the Mean trypsin activity (BENZ assay), TrypZean concentration equivalent; TrypZean standard 12.5 ng/mL plus SBTI (to 10 ug/mL); without SBTI 11.2 was less than 1.56 ng/mL; the Mean trypsin activity (BENZ assay), TrypZean concentration equivalent; TrypZean standard 25 ng/mL plus SBTI (to 10 ug/mL); without SBTI 23.5 is less than 1.56 ng/mL; the Mean trypsin activity (BENZ assay), TrypZean concentration equivalent; TrypZean standard 50 ng/mL plus SBTI (to 10 ug/mL); without SBTI 49.4 is less than 1.56 ng/mL; the Mean trypsin activity (BENZ assay), TrypZean concentration equivalent; TrypZean standard 100 ng/mL plus SBTI (to 10 ug/mL); without SBTI 102.4 was less than 1.56 ng/mL.
